Three molecules from patent US20040132045A1 (MERCK, published 2004) can be followed below.

Where “and” joins values, the source holds several entries; their conditions need not be identical. Equal entries are not always repeated. Bridges are numbered along the chain shown (N, C = ends). Where no end group is shown, it is not given here.

Test [1] addresses rhesus monkey MCH-2R (melanin-concentrating hormone type 2 receptor) (rhesus monkey) (UniProt Q8MJ88). Nature of the test: radioligand binding to HEK293T cells expressing rhesus MCH-2R, cell-bound radioactivity.
Test [2] has the same target. Description: radioligand binding to HEK293T cells expressing rhesus MCH-2R in the presence of 1 uM cold [Phe13, Tyr19]-MCH.
Test [3] has as its target T1, human MCH-2R (human, UniProt Q969V1 1-340).
T1 construct: Function was measured in HEK-293 aequorin cells
Description: radioligand competition binding on membranes of COS-7 cells transfected with human MCH-2R; radioligand not named. Here is the method:
(§1) (Strader, et al., 1987. Proc. Natl. Acad. Sci. USA 84, 4384-4388). Cells were harvested after 60-72 hours. Membranes were prepared from transient and stable transfectants by hypotonic lysis, frozen in liquid nitrogen, and stored at −80° C. (MacNeil, et al., 1994. Biochem. Biophys. Res. Commun. 198, 328-334.)
(§2) A binding assay was set up in 96 well plates. Total volume per binding assay point was 200 μL. […] Dose response curves were from 10 μM in 5 fold or 3-fold dilution series for 11 points. The mixture was shaken for 5 minutes on a platform shaker, and incubated at room temperature for 1 hour. Filter plates were presoaked in 1% PEI. The binding reaction was harvested onto filters using Packard Filtermate harvester (Meriden, Conn.). The filters were then washed in 50 mM Tris pH 7.4, 10 mM MgCl₂, 2 mM EDTA, 0.04% Tween 20, 6-8 times per plate. The plates were dried for 20 minutes at 55° C. or overnight at room temperature. 30 μL microscintillant was added per well and counted for 1.5-3 minutes in inverted format on Packard TopCount.

The target of test [4] is T1, human MCH-2R. Description: cell-based or functional assay.
Test [5] has as its target T2, ferret MCH-2R (ferret, UniProt Q969V1 1-340 (human entry)).
T2 chain: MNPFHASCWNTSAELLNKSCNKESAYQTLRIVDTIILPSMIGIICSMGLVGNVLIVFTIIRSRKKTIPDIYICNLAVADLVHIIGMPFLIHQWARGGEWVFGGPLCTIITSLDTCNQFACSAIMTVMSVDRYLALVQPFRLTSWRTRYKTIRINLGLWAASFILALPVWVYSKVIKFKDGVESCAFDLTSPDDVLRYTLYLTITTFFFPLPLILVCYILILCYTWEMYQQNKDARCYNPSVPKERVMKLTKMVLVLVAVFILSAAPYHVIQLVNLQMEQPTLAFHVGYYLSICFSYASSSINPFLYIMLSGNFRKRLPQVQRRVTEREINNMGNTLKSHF
Nature of the test: cell-based or functional assay.

Test [6] deals with T2, ferret MCH-2R. Nature of the test: radioligand competition binding on membranes of COS-7 cells transfected with ferret MCH-2R; radioligand not named. The protocol:
as §1, §2
For orientation: Displacement assays read how much labelled ligand stays bound in the presence of the test substance.

Test [7] has as its target T3, rhesus monkey MCH-2R (melanin-concentrating hormone type 2 receptor) (rhesus monkey, UniProt Q8MJ88 1-340). Description: cell-based or functional assay.
Test [8] addresses T3, rhesus monkey MCH-2R …. Nature of the test: displacement of 100 pM [125I]-[Phe13, Tyr19]-MCH from HEK293T cells expressing rhesus MCH-2R, filtration. Here is the method:
The remaining radio activity on the filter was quantitated using a TopCount HTS (Packard instrument) with a Microscint 0 scintillation cocktail (Packard instrument). […] Data were analyzed using GraphPad Prism Version 3.0.

T3 sequence (Q8MJ88 whole entry): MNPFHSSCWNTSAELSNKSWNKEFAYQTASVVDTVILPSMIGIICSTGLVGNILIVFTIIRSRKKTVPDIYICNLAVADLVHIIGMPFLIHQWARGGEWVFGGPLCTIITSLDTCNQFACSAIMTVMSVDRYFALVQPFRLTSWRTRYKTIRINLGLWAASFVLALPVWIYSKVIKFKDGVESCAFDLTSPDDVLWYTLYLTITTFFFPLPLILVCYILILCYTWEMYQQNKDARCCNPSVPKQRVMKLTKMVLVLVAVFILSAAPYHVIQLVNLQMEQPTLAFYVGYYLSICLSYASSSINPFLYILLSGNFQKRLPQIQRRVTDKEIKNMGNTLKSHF
Sequence of rhesus monkey MCH-2R (melanin-concentrating hormone type 2 receptor) (rhesus monkey) (Q8MJ88 whole entry): as above
T1 sequence (Q969V1 whole entry): as the sequence (Q8MJ88 whole entry) above, with S6A, S16L, I84V, S143R, V163I, I170V, A258V, V324A, D326E, K330N counted along it

For “[^125I]-[Phe^13, Tyr^19]-MCH (from UniProt P20382 147-165) (peptide)”, the Total binding (cpm) in test [1] is 18000 cpm (2×) and 18700 cpm. Moreover, the Nonspecific binding (cpm) in test [2] is 598 cpm and 567 cpm and 717 cpm.

B1: Melanin-concentrating hormone (MCH) (peptide, UniProt P20382 147-165, looked up)
peptide: DFDMLRCMLGRVYRPCWQV
modifications: disulfide 7-16 (inferred)
notes: mature; also called cold MCH; MCH unlabeled peptide
For the molecule B1, the IC50 (usually the midpoint of a concentration-inhibition curve) amounted to 0.01 µM with human MCH-2R [3] and 0.055 µM in the test with ferret MCH-2R [6]. Besides, the figures for the “Function (EC50, nM), aequorin bioluminescence assay” value in the test with human MCH-2R [4] and with ferret MCH-2R [5] were 43 nM and 69 nM, respectively. Besides, in test [7], the “increase in intracellular calcium levels (fura-2), EC50” value was 0.024 µM.
DFDMLRCMLGRVFRPCWQY (ends and bridges not checked; cysteine pairing not given here) [[Phe^13, Tyr^19]-MCH]: the “increase in intracellular calcium levels (fura-2), EC50” value in test [7] is 0.049 µM. This molecule had an IC50 in test [8] of 0.0038 µM.
